Measured values reported in US12331110B2, “Monoclonal antibodies against endotrophin and the use thereof” (THE BOARD OF REGENTS OF THE UNIVERSITY OF TEXAS SYSTEM, priority 2018, dated 2025).

Biological target: T1, recombinant endotrophin protein (Homo sapiens, UniProt P12111)
T1 construct: the latter consisting of 77 amino acids at the carboxy-terminal of the COL6α3 chain; CD33 signal peptide (N, cleaved yes); His-tag with EK-cleavage site (N, cleaved yes); purchased Sino Biological, Beijing, China; host or cells: HEK293
Test: Affinity measurement with BLI (Octet RED96)
Conditions: Octet (96-Red), 1:1 binding model
Description: FIGS. 12A-B. Kinetic sensorgrams for ETP-mAb4 (FIG. 12A) and each of the humanized antibodies (FIG. 12B). […]
For antibody affinity measurement, antibody (30 μg/mL) was loaded onto the protein A biosensors for 4 min. Following a short baseline in kinetics buffer, the loaded biosensors were exposed to a series of recombinant endotrophin protein at 0.1-200 nM and background subtraction was used to correct for sensor drifting. All experiments were performed with shaking at 1,000 rpm. Background wavelength shifts were measured from reference biosensors that were loaded only with antibody. Kinetic sensorgrams for each antibody are shown in FIGS. 12A&B. ForteBio's data analysis software was used to fit the data to a 1:1 binding model to extract an association rate and dissociation rate. The Kd was calculated using the ratio of koff/kon and the estimated values of […] for endotrophin ETP-mAb4 and 4 humanized ETP-hMab4 antibodies are listed in Table 4.

T1 sequence (P12111 3101-3177): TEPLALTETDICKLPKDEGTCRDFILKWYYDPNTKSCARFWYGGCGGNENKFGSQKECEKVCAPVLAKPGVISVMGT

B1: ETP-mAb4: rabbit monoclonal anti-human endotrophin antibody selected for further study; VH SEQ ID NO: 125, VL SEQ ID NO: 126 (antibody, V domains shown)
VH: SSRVKESGGDLVKPGASLTLTCKASGFSFSSGYYICWVRQAPGKGLEWIACIYGGNNNPYYANWVNGRFTTSKTSSTTVTLQMTNLTGADTATYFCARKDINIGGAYELWGPGTLVTISS
VL: ELVMTQTPASVSEPVGGTVTINCQASQSISSSYLSWYQQKPGQPPKLLIYKASTLASGVPSRFKGSGSGTQFSLTISDLECADAATYYCQYSDWANSYGNAFGGGTEVVVK
- kdis: 2.49 E−04 1/s
- kon: 1.42 E+05 1/Ms
